Data as given in the nanobody polyreactivity screen of Harvey et al. (2022).

Experiment: yeast display, Sf9 membrane polyspecificity reagent, FACS + sequencing; frameworks hold sequencing errors
Procedure, shortened: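 Nanobodies from a synthetic yeast display library (Saccharomyces cerevisiae BJ5465), induced 36–48 hours with galactose, were stained 1 hour at 4 °C with 10% biotinylated, detergent-solubilized Sf9 membrane reagent, enriched on streptavidin microbeads, then FACS-sorted. Anti-HA (expression) and streptavidin (reagent binding) fluorescence set low and high (top ~1%) gates. Polyreactivity labels come from the gate of origin. Genes were colony-PCR amplified, MiSeq 2 × 250 sequenced and filtered by CDR length.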

| Sequence | polyreactivity (PSR sort gate) |
| --- | --- |
| QVQLVESGGGLVQAGGSLRLSCAASGRTFTRYAMGWYRQPPGKESELVAAISRGGNTNYADSVKGRFTISRDNAKNTVYLQMNSLKPEDTAVYYCARVYGGYSVPSAYGSWGQGTQVTVSS | high polyreactivity |
| QFQLVESGGGLVQAGASLRLSCAASGSTFVRYAMGWYRQAPGKERDLVAAITWTGGITYYADSVKGRFTISRDNAKNTVYLHMNSLKPEDTAVYYCIAEQKQYEKSYDYWGQGTQVTVSS | low polyreactivity |
| QVQLVESGGGLVQAGGSLRLSCAASGSIFYSYAMGWYRQAPGKERELVAAISYRGGSTYYADSVKGRFTISRDNAKNTVYLQMNSLKPEDTAVYYCAADARQSRYNYWGQGTQVTVSS | high polyreactivity |
| QVQLVESGGGLVQAGGSIRLIWAASGSTVPSYTMGWYRQAPGKERELVAAISGSGGSTYYADSVKGRFTISRDNAKNTVYLQMNSLKPEDTAVYSCAADYRLQLSYAFGDDYWGQGPQVTVSS | low polyreactivity |
| QVHLVESGGGLVQAGGSLRLSCAACGRTFRSNALGWYSQAPGTEREFVAALSGRGGITYFADSVTGRFSISRDNAKNTVYLQMNSLKPEDTAVDYCNRDVKFHDYVYVTGINSPGYNYWGQGTQVTVSS | low polyreactivity |
| QVQLVESGGGLVQAGGSLRLRCAASGYNIQHYAMGWYRQAPGKERELVAAITSGGSTTYADSVKGRFTISRDNAKNTVYLQMNSLKPEDTAVYYCKALRRARYTRKGYEYWGQGTQVTVSS | high polyreactivity |
| QVQLVESGGGLVQAGGSLRLSCAASGRTFLRNAMGWYRQAPGKERELVATISWGGGSTYYADSVKGRFTISRDNAKNTVYLQMNSLKPEDTAVYYCAKQRAWSGFDYWGQGTQVTVSS | high polyreactivity |
| QVQLVESGGGLVQAGGSLRLSCAASGSIFPVYAMGWYRQAPGKERELVASISTGGSTYYADSVKGRFTISRDNAKNTVYLQMNSLKPEDTAVYYCAATGWAYGYGYGYWGQGTQVTVSS | low polyreactivity |
| QVQLVESGGGLVQAGGSVRLSCAASGFIFWYSAMGWYRQAPGKERELVAAISGTGGTTYYADSVKGRFTISRDNAKNTVYLQMNSLKPEDTAVYYCNFRYDSRRTAIGYAYWGQGTQETVSS | low polyreactivity |
| QVQLVESGGGLVQAGGSLRLSCAASGYTFSLYAMGWYRQAPGKERELVAAISSGDRTFYADSVKGRFTISRDNAKNTVYLQMNSLKPEDTAVYYCAARRYYVASIYRYDSWGQGTQVTVSS | high polyreactivity |
| QDQLVESGGGLVQAGGSLRLSCAASGSIFDDYAMGWYRQAPRKERELVASISWSGGRTYYADSVKGRFTISRDNAKNTVYLQMNSLKPEDTAVYYCAAALWTGYSWGQGTQVTVSS | low polyreactivity |
| QVQLVESGGGLVQAGGSLRLSCAASGIIFAYYAMGWYRQAPGKERELVGTNYADSVKGRFTISRDNAKNTVFLQMNSLKPEDTAVYYCAVQGYGEYDYWGQGTQVTVSS | low polyreactivity |
| QVQLVESGGGLVQAGGSLRLSCAASGFTFRYNAMGWYRQAPGKERELVAAISSRGGSTYYADSVKGRFTISRDNAKNTVYLQMNSLKPEDTAVYYCALYGGLGDRFRPRYYWGQGTQVTVSS | high polyreactivity |
| QVQLVESGGGLVQAGGSLRLSCAASGFIFSSYAMGWYRQAPGKERELVAAITSGGSTNYADSVKGRFTISRDNAKNTVYLQMNSLKPEDTAVYYCAADGVASLFGDPPTEFDYWGQGTQVTVSS | low polyreactivity |
| QVQLQESGGGLVQAGGSQRLTCAASVYIFYFQYMGWYRQAPGKEREFVAAMSDGANTNYADSVKGRFTISRDNAKNTESLQMNSLKPEDTAGYYCAVYADENYYYIYGGQGTQVTVSS | low polyreactivity |
| QVQLVESGGGLVQAGGSLRLSCAASGRTFRRYAMGWYRQAPGKERELVAAITGAGSTYYADSVKGRFTISRDNAKNTVYFQMNSLKPEDTAVYYCAATPDPPHSYEYWGQGTKVTVSS | low polyreactivity |
| QVQLVESGGGLVQAGGSLRLSCAASGSTFWRYAMGWYRQAPGKERELVAAITRRGSSTYYADSVKGRFTISRDNAKNTVVLQMNSLKPEDTAVYYCAAPGYVRTGVTYGGYYWGQGTQVTVSS | high polyreactivity |
| QVQLVESGGGLVQAGGSLRLSCAASGFISKYYAMGWSRQAPGKERELVASISRDGSTSYADSVKGRFTISRDNAKNTVYLQMNSLKPEDTAVYYCAAPRRWGDKYSFGYWGQGTQVTVSS | high polyreactivity |
| QVQLVESVGGLVQAGGSLRLSCAASGRTFGHYAMGWYRQEPGKERELVAAITSRGGSTNYADSVKGRFTISRDNAKNTVYLQMNSLKPEDTAVYYCAADTLIPDYSATFGYWGEGTQVTVSS | high polyreactivity |
| QVQLVESGGGLVQAGGSLRLSCAASGFIFYGYAMGWYRQAPGKERELVAGISTGGSTNYADSVKGRITISRDNAKNTVYLQMNSLKPEDTAVYYCAVVDVEEHVGHWGQGTQVTVSS | low polyreactivity |
| QVQLVESGGGLVQEGGSLRFSCAASGFTFDHYAMGWNRQAPGKERELVAVITKSGDSTYYADSVKGRFTISRDNAKNTVYLQMNSQKPEDPAVYYCNARRDYDMDWGQGTQVTVSS | high polyreactivity |
| QVQLVESGGGLVQAGGSLRLSCAASGSIFSDNVMGGYRQAPGKERELVAAIRDGDTTNYADSVKGRFTISRDNAKNTVYLQMNSLKPEDTAVYYCATRNTWYHRGYDYWGQGTQVTVSS | low polyreactivity |

| Sequence | polyreactivity (PSR sort gate) |
| --- | --- |
| QVQLVESGGGLVQAGGSLRLSCAASGRIFGNYAMGWYRQAPGKERELVAAISGGGSTYYADSVKGRFTISRDKAKNTVYLQMNSLKPEDTAVYYCAARFLWSVFGRKGGYWGQGTQVTVSS | low polyreactivity |
| QVQLVESGGGLVQAGGSLRLSCAASGLTFYQYAMGWYRQAPGKERELVAAISKSAGSTYYADSVKGRFTISRDNAKNTVYLQMNSLKPEDTAVYYCNAARPFTRVPRQTWKMGYWGQGTQVTVSS | high polyreactivity |
| QVQLVESGGGLVQAGGSLRLSCAASGFTFYAYAMGWYRQAPGKERELVAAISSRGGRTYYADSVKGRFTISRDNAKNTVYLQMNSLKPEDTAVYYCIVPYYSFRELSSYYWGQGTQVTVSS | high polyreactivity |
| QVQLVESGGGLVQAGGSLRLSCAASGRTFPYYAMGWYRQATGKERELVARIRSDGSTNYADSVKGRFTISRDNANNTVYLQMNSLKPEDTAVYYCAGKPYPSLFFHYGYWGQCTQVTVSS | low polyreactivity |
| QVQLVESGGGLVQAGGSLRLSCASSGRICGYYAMGLYRQAPGKERELVAAITSGGSTYYADSVKGRFTISRDNEKNTVYFQMKSLKPEDTAVYFCNKVTRYSPYDYWGQGTQVTVSS | high polyreactivity |
| QVQLVESGGGLVQAGGSLRLSCAASGSIFVRYAMGWYRQAPGKERELVASIRSRGDSTYYADSVKGRFTISRDNAKNTVYLQMNSLKPEDTAVYYCAARRYPPRMDYWGQGTQVTVSS | high polyreactivity |
| QVQLVESGGGLVQAGGSLRLSCAASGSIFYYNAMGWYRQAPGKEREFVAAIRTRGDSTYYADSVKGRFTISRDNAKNTVYLQMNSLKPEDTAVYYCAARHYGGDGNKYYYWGHGTQVTVSS | high polyreactivity |
| QVQLVESGGGLVQAGGSLRLSCAASGSIFRVYAMGWYRQAPGKERELVATISGSAGRTYYADSVKGRFTISRDNAKNTVYLQMNSLKPEDTAVYYCAARWYKEYYWGQGTQVTVSS | high polyreactivity |
| QVQLVESGGGLVQAGGSLRLSCAASGFTLEPNTMGWYRQAPGKERELVAGISWSGGSTYYADSVKGRFTISRDNAKNTVYLQMNSLKPEDTAVYYCNDDSGWFCYDYWGQGTQVTVSS | low polyreactivity |
| QVQLVESGGGLVQAGGSLRLSCAASGLTFGRNAMGWYRQAPGKERELVAAISRSGGRTSYADSVKGRFTISRDNAKNTVYLHMNSLKPEDTAVYYCAARSPIYRTTYYYWGQGTQVTVSS | high polyreactivity |
| QVQLVESGGGLVQAGGSLRLSCAASGSIFRWNAMGWYRQAPGKERELVAGIRWDSGSTYYADSVKGRFTISRDNAKNTVYLQMNSLKPEDTAVYYCAADLFDFLLIDGFAVVTYGYWGQGTQVNVSS | low polyreactivity |
| QVQLVESGGGLVQAGGSLRLSCAASGFTFYSYVMGWYRQAPGKERELVAAISWSGGRTNYADSVKGRFTISRDNAKNTVYLQMNSLKPEDTAVYYCNAPFRLRYRVDYWGQVTQVTVSS | high polyreactivity |
| QVQLVESGGGLVQAGGSLRLSCAASGFTFDSYAMGRYRQAPGKERELVAAISSSGGDSTSYADSVKGRFTISRDNAKNTVYLQMNRLKPEDTAVYYCADEQFYSFIVDDTWFSGFDYWGQGTQVTVSS | low polyreactivity |
| QVQLVESGGGIVQAGGSLRLSCAGSGRTFLWNAMGWYRQAPGKERELVARINLSGGRTYYADSVKGRFTISRDNAKKTVNLQMNSLKPEDTAFYYCAATVVRYRRDSWGQGTQVTVSS | low polyreactivity |
| QVQLVESGGGLVQAGGSLRLSCAASVRIIDINAMGWSRQAPRKEREFVAGITSVGSTNYADSEKGRFTISRDNAKNTDYLDMNSLKPEDTAVYYCAADTSVHSEVDYWGQGTQVTVSS | low polyreactivity |
| QVQLVESGGGLVQAGGSLRLSCAASGSTFYTNAMGWYRQAPGKERELFAAIRQSGGTTHYADSVKGRFTISRDNAKNTVYLLMNSLKPEDTAVYYCAAVSGGYSRRYRYGYWGQGTQVTVSS | high polyreactivity |
| QVQLVESGGGLVQAGGSLRLSCAASVSTFDGYAMGWYRQAPGKERELVAAISSNGGSTYYADSVKGRFTISRDNAKNTVYLQMNSLKPEDTAVYYCNTYRSTVYSWTHLLYDYWGQGTQVTVSS | low polyreactivity |
| QVQLQESGGGLVQAGGSLRLSCAASGIIFDNPNMGWYRQAPGKERELVATINSGATTNYADSVKGRFTISRDNENNTVYLQMNSLIPEDTAVYYCAVDLSPTYFYFWGQGTQVTVSS | high polyreactivity |
| QVQLVESGGGLVQAGGSLRLSCAASAFTFYTNAMGWYRQAPGKERELVAAISGGGSTKYADSVKGRFTISRDNAKNTVYLQMNSLKPEDTAVYYCAAQIKWGYRRNRHDYWGQGTQVTVSS | high polyreactivity |
| QVQLVESGGGLVQAGGSLRLSCAASGSIRYYAMGWYRPAPGKERELVAGITRNGGSTYYADSVKGRFTISRDNAKNTVYLQMNSLKPEDTAVYYCAAGFTTRRGEYNYWGQGTQVTVSS | high polyreactivity |
| QVQLVESVGGLVQAGGSLRLSCAASGFTFHLYAMGWYRPAPGKERELDAAISQSGDSTYYADSVKGRFTISRDNAKNTVYLQMNSLKPEDTAVYYVNADNDGVVWSYPFDFDYWGQGTQVTVSS | low polyreactivity |
